Laboratory results from paper PMC9078203.
pKd: −log10 of the molar value. Read-outs that look alike come from different tables or passages of the source.

Legend:
[1] = target: DIP-α G74A (D. melanogaster) (UniProt Q9W4R3); test: AUC
[2] = target: DIP-α K81Q (D. melanogaster) (UniProt Q9W4R3); test: AUC
[3] = target: DIP-α K81Q G74S (D. melanogaster) (UniProt Q9W4R3); test: AUC
[4] = target: DIP-γ (D. melanogaster); test: SPR
[5] = target: DIP-α K81Q G74S (D. melanogaster) (UniProt Q9W4R3); test: SPR
[6] = target: DIP-α K81Q (D. melanogaster) (UniProt Q9W4R3); test: SPR
[7] = target: DIP-α G74A (D. melanogaster) (UniProt Q9W4R3); test: SPR
[8] = target: DIP-β (D. melanogaster); test: SPR
[9] = target: DIP-α (D. melanogaster) (UniProt Q9W4R3); test: SPR
[10] = target: DIP-α (D. melanogaster) (UniProt Q9W4R3); test: SPR; remark: listed apart in the source

## DIP-α G74A (from UniProt Q9W4R3 1-554) (natural protein)
[1]
  pKd: 4.30
  stoichiometry N: 2

## DIP-α K81Q (from UniProt Q9W4R3 1-554) (natural protein)
[2]
  pKd: 4.71
  stoichiometry N: 2

## DIP-α K81Q G74S (from UniProt Q9W4R3 1-554) (natural protein)
[3]
  pKd: 4.34
  stoichiometry N: 2

## Dpr10 (from UniProt Q9VT83 1-408) (natural protein)
[4]
  pKd: < 3.00
[5]
  pKd: 4.17
[6]
  pKd: 4.50
[7]
  pKd: 6.05
[8]
  pKd: 4.48

## Dpr10 Q138D (from UniProt Q9VT83 1-408) (natural protein)
[9]
  pKd: 4.56
[10]
  pKd: 4.56

## Dpr10 Q142M (from UniProt Q9VT83 1-408) (natural protein)
[10]
  pKd: 6.72
[7]
  pKd: 7.00

## Dpr10 V144K (from UniProt Q9VT83 1-408) (natural protein)
[10]
  pKd: 4.95

## Dpr10 V144K Q142E G99D (from UniProt Q9VT83 1-408) (natural protein)
[10]
  pKd: 4.30
